In the supplement of paper PMC10567573:
± gives the standard deviation.

Test: protein stability index of a GFP-peptide fusion (GPS, HEK-293T) (PSI 1-6); higher = more stable
Conditions: c terminus: a fixed tail appended
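Also: 24-mer peptide tiles fused after GFP, lentivirally expressed, FACS-sorted into six equal bins by GFP/DsRed ratio, decoded by Illumina sequencing, PSI is the read-weighted mean bin number.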

Sequence | protein stability index (treatment: DMSO) | protein stability index (treatment: MLN4924 1 uM, 8 h)
SQSSYLSQHRRIHSGEKPFICKEC [ZNF232] | 3.36 ± 0.33 | 3.67 ± 0.44
KYLKLQDTCRTQLVWLVRELVKSG [INTS3] | 2.94 ± 0.82 | 2.6 ± 0.83
RLDGCIYAIKRSKKPLAGSVDEQN [WEE1] | 3.54 ± 0.28 | 3.73 ± 0.22
LRFTSGLVVALDVDATLEHVQDPQ [INTS4] | 2.09 ± 0.25 | 2.43 ± 0.22
EAEQSLRNLEDIHMSLEKDIAAMT [TEKT4] | 4.58 ± 0.25 | 4.8 ± 0.14
HHRVQENQMDKARRHPQGAWKELD [CHGB] | 4.45 ± 0.11 | 4.4 ± 0.11
SDKEIVAEAERLDVKAMGPLVLTE [EIF5] | 5.08 ± 0.054 | 5.23 ± 0.31
LLSSGFEIDTPDKFGRTCLHAAAA [ANKRD44] | 2.95 ± 0.39 | 2.95 ± 0.035
TFALYKNGSSEKREVRQFQFTAWP [PTPRD] | 2.29 ± 0.22 | 2.46 ± 0.18
KTKAPAPDEGSDLFYDDYYEDGEV [CDC34] | 5.35 ± 0.31 | 5.38 ± 0.29
LELLDKIERSKIVSTMRCKTRQKS [PPEF2] | 3.54 ± 0.43 | 3.73 ± 0.074
LLHLHQTAHADEFDCPSELQHTQE [STEAP1] | 4.66 ± 0.11 | 4.78 ± 0.11
CLECGKSFCHGSSLKRHLKTHTGE [ZNF449] | 4.78 ± 0.16 | 5.273 ± 0.015
YLEKYYNLKNDGRQVEKRRNSGPV [MMP1] | 2.68 ± 0.57 | 3.27 ± 0.4
MAGGKAGKDSGKAKAKAVSRSQRA [H2AZ2] | 4.73 ± 0.24 | 5.03 ± 0.25
KERLKPAHIHLQQLTCFSITCSST [KRT34] | 2.1 ± 0.34 | 2.49 ± 0.22
KAQAKVGSLDNAHHVPGGGNVKID [MAP2] | 4.85 ± 0.12 | 4.87 ± 0.34
ISKNKKKASNSIISCFNNAPPAKL [FAN1] | 3.36 ± 0.21 | 2.79 ± 0.31
NMEKYNFLGISIVGQSNERGDGGI [DVL3] | 3.18 ± 0.28 | 3.16 ± 0.82
WILFPLLGCYAVYSLLYLEHKGWY [CLPTM1] | 2.9 ± 0.28 | 3.4 ± 0.072
CAHCRAHLANHDDLISKSFQGSQG [YPEL3] | 2.45 ± 0.34 | 2.74 ± 0.24
DSSCSGQPIHLWQFLKELLLKPHS [SPDEF] | 2.47 ± 0.21 | 2.46 ± 0.16
LQRDFLKQRPTKLKSLIRLVKHWY [OAS1] | 3.3 ± 0.41 | 3.15 ± 0.23

Sequence | protein stability index (treatment: DMSO) | protein stability index (treatment: MLN4924 1 uM, 8 h)
LASGLVVFFLFPHSVLVDDDGIKV [TMEM106C] | 2.92 ± 0.48 | 2.86 ± 0.49
KLAQALHEMREQHDAQVRLYKEEL [LMNB1] | 2.66 ± 0.3 | 2.7 ± 0.22
LELTVRRVQGVLRGRAREREQLQA [HES6] | 3.7 ± 0.45 | 3.64 ± 0.43
RISHTLYDLDKIIELNGGQPPLTY [CRY1] | 2.38 ± 0.041 | 2.6 ± 0.27
TGEDVKVILKNSQGEEVAQRSTVF [LMNB1] | 4.7 ± 0.15 | 4.64 ± 0.09
EDDDEEDTDKLLNSASDPSLKDGL [PSD2] | 5.51 ± 0.3 | 5.46 ± 0.33
PMMKAAMYSVEITVEKDKVTGETR [PALM] | 4.16 ± 0.33 | 4.29 ± 0.14
CVVCGDKSSGKHYGQFTCEGCKSF [NR2F2] | 4.76 ± 0.4 | 4.99 ± 0.14
IDNTTVIYNSNIFTDPFFIVETLC [KCNA1] | 2.72 ± 0.67 | 2.53 ± 0.37
GEDQWNPNGKHSTNFVSRYDPRFN [KLHL14] | 3.83 ± 0.23 | 3.57 ± 0.41
RNGSERVVTSAREHIYDLRSLENY [CLINT1] | 3.5 ± 0.16 | 3.81 ± 0.25
EVELAYQEAMFNMATLNRTAAGLM [SEPHS2] | 2.42 ± 0.46 | 2.56 ± 0.68
VGSDDLERIEARLATLEGDDPSLR [PSD2] | 5.32 ± 0.17 | 5.42 ± 0.17
DPEVLEAVGDRQDGLREQLQAPVP [PBXIP1] | 5.43 ± 0.27 | 5.4 ± 0.24
SVIEEDLEEFQLALKHYVESASSQ [NECAB1] | 3.78 ± 0.58 | 3.84 ± 0.077
RTAFLWRGNVVLRAQMIRNEYRKL [TRIM43] | 2.66 ± 0.29 | 2.51 ± 0.29
LALALKKCKPSLPAEAEGAAQELE [TMEM120A] | 4.39 ± 0.18 | 4.46 ± 0.19
SPADYLRFQDLVLRMLEYEPAARI [DYRK1B] | 2.56 ± 0.35 | 2.43 ± 0.33
FDPAEKYKMDHRRRGIALIFNHER [CASP6] | 2.89 ± 0.2 | 3.19 ± 0.39
HIIRIGDLKPTGEIPKQVKVKKLK [DENND6A] | 2.73 ± 0.2 | 3.12 ± 0.19
LFEEILSNSRQLKWLSCGFMLEIV [FBXO33] | 3.02 ± 0.69 | 2.79 ± 0.57
AFREFDRDRDGRITVAELREAVPA [CABP4] | 4.65 ± 0.37 | 4.58 ± 0.17
VILIFHCEFSSERGPRMCRFIRER [CDC25B] | 2.78 ± 1.1 | 2.64 ± 0.83

Sequence | protein stability index (treatment: DMSO) | protein stability index (treatment: MLN4924 1 uM, 8 h)
HGIRPPQLEQPEKMPVLKAEASHY [RHOBTB3] | 4.41 ± 0.11 | 4.41 ± 0.2
PLNRFSSVPLDPMERPMSQADLEL [CBY2] | 4.47 ± 0.18 | 4.53 ± 0.28
QDGSPTTSRRPSGTGTGPEDGRPS [PDLIM4] | 5.37 ± 0.22 | 5.66 ± 0.16
GVILHSLKTQSLEGKRKAFYTCAS [OR4A15] | 2.48 ± 0.27 | 2.19 ± 0.27
DRVLNYTSWSQHCPWEPQKQPPWE [SPAG8] | 2.87 ± 0.2 | 2.96 ± 0.15
ILKNLSQVAMRCRCSSMHFLVAEW [SAT1] | 2.4 ± 0.2 | 2.65 ± 0.31
LSLYQLSLERGTALFAQVQRGALP [RSAD1] | 2.23 ± 0.36 | 2.32 ± 0.44
PEGKRVPKRLRCWEEEEDHEKERP [FANCE] | 5.21 ± 0.25 | 5.26 ± 0.27
AGALLRLPSERLDFSMAEALNQEF [PRPH] | 3.32 ± 0.3 | 3.52 ± 0.35
IISKPVPQTLIMAYDYAKEVNSAE [FEM1C] | 2.93 ± 0.34 | 2.81 ± 0.16
TRPTQHELRLYKQQVKKLEKALKK [CEP70] | 3.23 ± 0.25 | 3.07 ± 0.29
FSRVCRLHRGQLSLFCLEDKELLC [TRIM35] | 2.22 ± 0.56 | 2.19 ± 0.18
SGEDPTAAAPVAEVPTAAGALTPT [CLPTM1] | 5.42 ± 0.16 | 5.47 ± 0.36
LAAKERHCGELKRRLGLSTLGELK [TPD52L2] | 2.85 ± 0.32 | 3.02 ± 0.33
YQETMVESTFMYLTLDLPTAPLYK [USP39] | 2.36 ± 0.52 | 2.28 ± 0.21
SDDDEEEEENIGCEEKAKKNANRP [ACBD3] | 5.42 ± 0.28 | 5.49 ± 0.38
GKEVSGDQIEDMFEQGKWDVFSEN [STX11] | 4.33 ± 0.31 | 4.31 ± 0.35
RLQELCHGWLRPEMRTKEQILELL [ZNF263] | 2.58 ± 0.11 | 2.9 ± 0.12
LTVVSFYQVAALQGDLASLRAELQ [TNFSF13B] | 2.77 ± 0.7 | 2.63 ± 0.68
GTDQVCVLEWGAEGVAGKSGLEKE [FCHSD1] | 5.01 ± 0.25 | 5.07 ± 0.15
ILGETQEEEDEILPRKDYESLDYD [CLCN6] | 5.33 ± 0.2 | 5.18 ± 0.086
LMDIVPADDHRYKFADNKWSVTGK [TBX5] | 3.63 ± 0.29 | 3.54 ± 0.15
CEETGELFEEPAPQALATRALPCP [FCHSD1] | 4.95 ± 0.2 | 4.9 ± 0.24

Sequence | protein stability index (treatment: DMSO) | protein stability index (treatment: MLN4924 1 uM, 8 h)
MENNHTVAITILQDDHDHKVQELM [MTUS2] | 4.42 ± 0.26 | 4.34 ± 0.098
VLRCQLSAEEVRFPVSVTQQSPAA [C2CD2L] | 3.3 ± 0.34 | 3.45 ± 0.23
IQKLTQIETGENVTGMELEFKRLA [PTPRD] | 3.51 ± 0.08 | 3.55 ± 0.43
RSSVELELERCRQQAGLLVTGEKE [PPEF2] | 4.74 ± 0.57 | 4.86 ± 0.34
FGVKYNPYTRSIQILKDTKSITSA [TPH1] | 2.43 ± 0.63 | 2.46 ± 0.11
IVKQQDPLVYKAIQQGINAVNQEA [ACSBG2] | 3.75 ± 0.11 | 3.82 ± 0.12
SGPARVIAIVSVMVILISIVIFCL [KCNA1] | 2.18 ± 0.14 | 2.22 ± 0.32
TDNSIKPQELLEWELVVLGKLKWN [CCND2] | 2.65 ± 0.25 | 2.81 ± 0.33
VLKKQDAFYKEQLARLEERSSEFY [CHCHD3] | 3.45 ± 0.34 | 3.48 ± 0.12
GKDEIEAAVKAAREAFPSWSSRSP [ALDH8A1] | 4.5 ± 0.32 | 4.29 ± 0.23
MADQDPAGISPLQQMVASGTGAVV [SLC25A39] | 4.52 ± 0.22 | 4.42 ± 0.13
MWLLVSVILISRISSVGGEAMFCD [CFHR2] | 3.35 ± 0.25 | 3.08 ± 0.52
SLEESVGKPLYLIFRNLCQMQEDN [INTS3] | 2.45 ± 0.45 | 2.46 ± 0.22
MALQLGRLSSGPCWLVARGGCGGP [CPOX] | 2.36 ± 0.38 | 2.44 ± 0.38
GGQEEASQEAGLPAGAGPSPTFPA [SEPHS2] | 5.56 ± 0.1 | 5.25 ± 0.23
RAIPELTKLLNDEDQVVVNKAAVM [CTNNB1] | 3.91 ± 0.16 | 3.89 ± 0.21
IEKTGGVEAVKNELRRQAPPPPPP [WASL] | 4.492 ± 0.027 | 4.46 ± 0.58
KRPAPRTAPRQEKHERTHEIIPIN [SPRY1] | 4.03 ± 0.18 | 4.2 ± 0.15
SGFVGSGGWFCEGSFNGSEKETMQ [KRT36] | 3.87 ± 0.36 | 3.65 ± 0.19
SLKFFLNKPMLADVVFEIQGTTVP [RHOBTB3] | 2.68 ± 0.39 | 2.29 ± 0.37
